The values that follow come from PMC3790809.

Assay [1] concerns the target YsaL-His (YE3555 with N-terminal His tag, refolded) (Yersinia enterocolitica ATCC51871 (serotype O:8, biovar 1B)). The experiment in a line: SEC.
Assay [2] shares this target. The assay can be described thus: cross-linking; refolded YsaL-His (100 µg in 30 µl), 2 µL of 1.5% glutaraldehyde, 25°C, 5 min; 50 mM sodium phosphate pH 8.0, 150 mM NaCl; SDS-PAGE.
Assay [3] deals with YsaN-His (full length YsaN, YE3544, with N-terminal His tag) (Yersinia enterocolitica ATCC51871 (serotype O:8, biovar 1B)). The experiment in a line: SEC. (In general: In gel filtration, larger molecules generally elute earlier.)
For assay [4] the target is unchanged. The assay can be described thus: dynamic light scattering; YsaN-His 0.7 mg/ml, 25°C, 25 mM Tris, 300 mM NaCl, 2% glycerol; mass from the hydrodynamic size.
Assay [5] addresses YsaN-His (full length YsaN, soluble) (Yersinia enterocolitica ATCC51871). The assay can be described thus: SPR.
In assay [6] the target is YsaNΔ(411-430)-His (Yersinia enterocolitica ATCC51871). The assay can be described thus: SPR. (Surface plasmon resonance follows binding to a sensor surface in real time, without labels.)
Assay [7] concerns the target YsaNflr-His (full length YsaN, refolded) (Yersinia enterocolitica ATCC51871). The assay can be described thus: SPR.
The target of assay [8] is YsaNΔ(426-430)-His (Yersinia enterocolitica ATCC51871). The experiment in a line: SPR.
Assay [9] has as its target YsaNΔ(1-5)-His (Yersinia enterocolitica ATCC51871). The assay can be described thus: SPR.
Assay [10] addresses YsaN-His (full length YsaN, YE3544, with N-terminal His tag) (Yersinia enterocolitica ATCC51871 (serotype O:8, biovar 1B)).
The target of assay [11] is YsaNΔ(426–430)-His (Yersinia enterocolitica ATCC51871 (serotype O:8, biovar 1B)). The assay can be described thus: SPR.
Assay [12] deals with YsaNΔ(411–430)-His (Yersinia enterocolitica ATCC51871 (serotype O:8, biovar 1B)). The assay can be described thus: SPR.
The target in assay [13] is YsaNΔ(1–5)-His (Yersinia enterocolitica ATCC51871 (serotype O:8, biovar 1B)). The experiment in a line: SPR.
The target in assay [14] is YsaN-His (full length YsaN, YE3544, with N-terminal His tag) (Yersinia enterocolitica ATCC51871 (serotype O:8, biovar 1B)). The experiment in a line: SPR.

Where “and” joins values, the source holds several entries; their conditions need not be identical. Identical values can stand only once.

For “YsaL-His (YE3555 with N-terminal His tag, refolded) (natural protein)”, the stoichiometry N in assay [1] and in assay [2] was 2 in each case.
Take “YsaN-His (full length YsaN, YE3544, with N-terminal His tag) (enzyme)”: in [3], the stoichiometry N (commonly a count of units in the complex or per binding partner) was determined as 12. This substance returned a percent of sample in the oligomeric form in assay [4] of 90%.
For the substance “untagged YsaL (YE3555), refolded (natural protein)”, the Ka in assay [5] turned out to be 2.9e+07 M⁻¹; in assay [6] it was 3.86e+06 M⁻¹; in assay [7], 2.38e+08 M⁻¹; in assay [8], 882000 M⁻¹; in assay [9] it was 20300 M⁻¹. Further, the off-rate constant (koff) – broadly, a measure of how fast the partners let go of each other – in assay [5] is 0.000119 s⁻¹; in [6] it was 0.000132 s⁻¹; in [7] it was 1.91e-05 s⁻¹. Besides, the kon (as a rule, the rate constant with which the complex forms) in [5] was 3450 M⁻¹ s⁻¹; in assay [6] it was 510 M⁻¹ s⁻¹; in assay [7], 4540 M⁻¹ s⁻¹. Besides, the Kd (in general, the concentration at which binding is half-saturated) in [6] turned out to be 260 nM.
“untagged YsaL (YE3555) (natural protein)” gave a stoichiometry N (YsaL per YsaN) in assay [3] of 2. In addition, in [10], the inhibition of the ATPase activity of YsaN-His (malachite green assay); untagged YsaL in the soluble co-purified untagged YsaL-YsaN-His complex, highly comparable with YsaL-His added at 2∶1 was determined as 73%. Moreover, the dissociation constant (Kd) in assay [11] is 100 nM; in [12] it was 100 nM; in [13], 400000 nM; in assay [14], 35 nM and 42 nM.
